Common to all, as to assay: purified protein
Substrate in series [1]: NC(=O)C1=CN([C@@H]2O[C@H](COP(=O)(O)OP(=O)(O)OC[C@H]3O[C@@H](n4cnc5c(N)ncnc54)[C@H](O)[C@@H]3O)[C@@H](O)[C@H]2O)C=CC1
To be noted: 1 mM acrylate, pH 6.5.

Substrate in series [2]: C=C(C)C(=O)O
As to conditions: 150 μM NADH (saturating), pH 6.5.

Substrate in series [3]: C=CC(=O)O
As to conditions: 150 μM NADH (saturating), pH 6.5.

As usually defined, the Km is the concentration of substrate that gives half-maximal velocity. One may read the kcat as the number of substrate molecules converted per active site and unit of time at saturation.

B1: ARD (NADH:acrylate oxidoreductase) (Vibrio harveyi) (protein)
chain: MAQLVDEIVFQSGVKLHNRIVMAPMTIQSAFFDGGVTQEMINYYAARSGGAGAIIVESAFVENYGRAFPGALGIDTDSKIAGLTKLADAIKAKGSKAILQIYHAGRMANPEFNGGHQPISASPVAALRDNAETPLEMTKEQIEEMIERFGDAVNRAILAGFDGVEIHGANTYLIQQFFSPHSNRRNDKWGGNIERRTSFPLAVLAKTKQVAEQHNKSDFIIGYRFSPEEIEQPGIRFDDTMFLLDKLATHGLDYFHFSMGSWLRNSIVTPEDQEPLIDKYRKLQSESVAKVPVIGVGGIAQRKDAENALEQGYDMVSVGKGYLVEPTWANKALNDETCAEFADIAQQEALQIPTPLWEIMDYMIVDSAAEALKHQRIKELQNVPIKFNSGEYTAYGRGHNGDLPVTVTFSEDKILDIVVDSSKESDGIANPAFERIPQQILDGQTLNIDVISGATVSSQAVLDGVSNAVDLAGGNSEALRCKAKEAVAWSSKTIEETVDIVVVGGGGAGLSATLTALDKGKSVVLLEKFPAIGGNTVRTGGWVNAAEPKWQGDFPALPGEKETLMLLAKTAESEFSGEYLEDFKVLKAQLDGYFTDLENGKQYLFDSVELHRIQTYLGGKRTDLNGESIYGQYDLVETLTSRSMESIDWLSEKGIDFDRSVVEIPVGALWRRAHKPKRPKGVEFIDKLSKRIQEQNGRIITDTRATDLMVDNGKVVGIKAVQADGTELILHVNHGVVLASGGFGANTQMIKKYNTYWKEIADDIKTTNSPALVGDGIEIGEKAGAELVGMGFVQLMPVGDPKSGALLTGLIVPPENFVFVNKQGKRFVDECGSRDVLSEAFFDNGGLIYMIADENIRQTAANTSDETIEREIKEGIIIQADTLEELAEKIGVPTQELTNTIAQYNACVDAGQDPEFHKSAFGLKVEKAPFYATPRQPSVHHTMGGLKIDTKARVIGKDGEVIQGLYAAGEVTGGIHAGNRLGGNALIDIFTYGRIAGESASDLV
As for B1, the Km in “purified protein [1]” was found to be 14 ± 1 µM; in “purified protein [2]”, 690 ± 140 µM; in “purified protein [3]”, 16 ± 1 µM. The values for the kcat in “purified protein [2]” and in “purified protein [3]” were 2.5 ± 0.2 s⁻¹ and 19 ± 1 s⁻¹, respectively.

(Values after doi:10.1101/2022.01.20.477176v3.)
